Experimental data as given in the supplement of paper PMC9112550, “Optimization of the antimicrobial peptide Bac7 by deep mutational scanning” (BMC Biology, 2022).

Tested on: Escherichia coli TOP10
Test: shrunken log2 fold change of peptide-encoding DNA abundance (4.5 h post-induction vs induction); higher = less antimicrobial activity (less host growth inhibition)
Conditions: time post-induction: 4.5 h; library: site-saturation at positions 5, 18, 19, 20
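Also: peptides expressed intracellularly from a pBAD plasmid library in pooled LB shake-flask culture, induced with 0.3% L-arabinose, DNA abundance read by NGS, three biological replicates, DESeq2 with apeglm shrinkage.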

Going from RRIRQRPPRLPRPRPRPTVRPRP to RRIRHRPPRLPRPRPRPQMAPRP, the “shrunken log2 fold change” value falls from 0.0397 to -0.191.

RRIRKRPPRLPRPRPRPIWEPRP and RRIRKRPPRLPRPRPRPTTPPRP are within 0.2 log units of each other in “shrunken log2 fold change” value: 0.295 for the first, 0.427 for the second.

RRIRDRPPRLPRPRPRPCWQPRP and RRIRLRPPRLPRPRPRPQCSPRP are within 0.2 log units of each other in “shrunken log2 fold change” value: 0.0562 for the first, -0.127 for the second.

Compared with RRIRHRPPRLPRPRPRPCYEPRP, RRIRTRPPRLPRPRPRPYFYPRP is lower in “shrunken log2 fold change” value: -0.185 for the first, -0.842 for the second.

RRIRYRPPRLPRPRPRPFSWPRP and RRIRHRPPRLPRPRPRPMIKPRP are within 0.2 log units of each other in “shrunken log2 fold change” value: -0.235 for the first, -0.0726 for the second.

RRIRVRPPRLPRPRPRPHAQPRP and RRIRERPPRLPRPRPRPLMPPRP are within 0.2 log units of each other in “shrunken log2 fold change” value: -0.224 for the first, -0.119 for the second.

First: RRIRGRPPRLPRPRPRPMRTPRP
Second: RRIRDRPPRLPRPRPRPIHHPRP
The “shrunken log2 fold change” value of the first is higher: 2 for the first, -0.649 for the second.

RRIRNRPPRLPRPRPRPAFFPRP and RRIRGRPPRLPRPRPRPFLIPRP are within 0.2 log units of each other in “shrunken log2 fold change” value: 0.0459 for the first, -0.0796 for the second.

Going from RRIRRRPPRLPRPRPRPGWEPRP to RRIRRRPPRLPRPRPRPFTDPRP, the “shrunken log2 fold change” value falls from 0.393 to -0.0197.

RRIRQRPPRLPRPRPRPEGPPRP and RRIRKRPPRLPRPRPRPHVTPRP are within 0.2 log units of each other in “shrunken log2 fold change” value: 0.172 for the first, -0.0241 for the second.

Going from RRIRERPPRLPRPRPRPINLPRP to RRIRARPPRLPRPRPRPDWDPRP, the “shrunken log2 fold change” value rises from -0.338 to 0.341.

RRIRFRPPRLPRPRPRPEHLPRP and RRIRLRPPRLPRPRPRPQEMPRP are within 0.2 log units of each other in “shrunken log2 fold change” value: -0.223 for the first, -0.0408 for the second.

First: RRIRSRPPRLPRPRPRPCAHPRP
Second: RRIRGRPPRLPRPRPRPCWRPRP
The “shrunken log2 fold change” value of the first is lower: -0.235 for the first, 0.248 for the second.

RRIRRRPPRLPRPRPRPHHTPRP and RRIRTRPPRLPRPRPRPSMIPRP are within 0.2 log units of each other in “shrunken log2 fold change” value: -0.408 for the first, -0.527 for the second.

RRIRKRPPRLPRPRPRPMVQPRP and RRIRPRPPRLPRPRPRPAFRPRP are within 0.2 log units of each other in “shrunken log2 fold change” value: 0.208 for the first, 0.211 for the second.

Going from RRIRLRPPRLPRPRPRPPGFPRP to RRIRYRPPRLPRPRPRPLEVPRP, the “shrunken log2 fold change” value falls from 0.278 to -0.335.

RRIRKRPPRLPRPRPRPVRQPRP and RRIRCRPPRLPRPRPRPALYPRP are within 0.2 log units of each other in “shrunken log2 fold change” value: -0.0361 for the first, -0.0755 for the second.

Going from RRIRSRPPRLPRPRPRPKNHPRP to RRIRDRPPRLPRPRPRPKRRPRP, the “shrunken log2 fold change” value rises from -0.215 to 0.529.

Compared with RRIRNRPPRLPRPRPRPELTPRP, RRIRHRPPRLPRPRPRPNDHPRP is lower in “shrunken log2 fold change” value: 0.162 for the first, -0.499 for the second.

Compared with RRIRWRPPRLPRPRPRPNAWPRP, RRIRFRPPRLPRPRPRPFNIPRP is lower in “shrunken log2 fold change” value: 0.826 for the first, -0.429 for the second.

RRIRGRPPRLPRPRPRPYNWPRP and RRIRHRPPRLPRPRPRPDTEPRP are within 0.2 log units of each other in “shrunken log2 fold change” value: -0.225 for the first, -0.172 for the second.

Going from RRIRFRPPRLPRPRPRPAIMPRP to RRIRRRPPRLPRPRPRPHPWPRP, the “shrunken log2 fold change” value rises from -0.225 to 0.25.

RRIRGRPPRLPRPRPRPMGHPRP and RRIRDRPPRLPRPRPRPLQCPRP are within 0.2 log units of each other in “shrunken log2 fold change” value: 0.202 for the first, 0.0793 for the second.

Compared with RRIRWRPPRLPRPRPRPGRSPRP, RRIRPRPPRLPRPRPRPWDTPRP is lower in “shrunken log2 fold change” value: 0.0808 for the first, -0.743 for the second.

Compared with RRIRDRPPRLPRPRPRPFDSPRP, RRIRMRPPRLPRPRPRPDLCPRP is higher in “shrunken log2 fold change” value: -0.0169 for the first, 0.196 for the second.

Compared with RRIRLRPPRLPRPRPRPNCPPRP, RRIRRRPPRLPRPRPRPRMGPRP is higher in “shrunken log2 fold change” value: -0.213 for the first, 0.136 for the second.

Compared with RRIRVRPPRLPRPRPRPFHNPRP, RRIRMRPPRLPRPRPRPVSDPRP is higher in “shrunken log2 fold change” value: -0.0884 for the first, 2.67 for the second.

Going from RRIRKRPPRLPRPRPRPWSIPRP to RRIRCRPPRLPRPRPRPVEFPRP, the “shrunken log2 fold change” value rises from -0.304 to -0.05.

Compared with RRIRPRPPRLPRPRPRPPEVPRP, RRIRPRPPRLPRPRPRPGPPPRP is higher in “shrunken log2 fold change” value: -0.0265 for the first, 0.366 for the second.

Compared with RRIRYRPPRLPRPRPRPKCPPRP, RRIRIRPPRLPRPRPRPWNSPRP is lower in “shrunken log2 fold change” value: 0.137 for the first, -0.592 for the second.

Compared with RRIRYRPPRLPRPRPRPDIMPRP, RRIRCRPPRLPRPRPRPRVGPRP is higher in “shrunken log2 fold change” value: -1.15 for the first, 0.472 for the second.

RRIRLRPPRLPRPRPRPGLNPRP and RRIRQRPPRLPRPRPRPDEEPRP are within 0.2 log units of each other in “shrunken log2 fold change” value: 0.15 for the first, -0.0445 for the second.

RRIRGRPPRLPRPRPRPYPCPRP and RRIRRRPPRLPRPRPRPKYHPRP are within 0.2 log units of each other in “shrunken log2 fold change” value: -0.0571 for the first, -0.153 for the second.

RRIRVRPPRLPRPRPRPWTPPRP and RRIRDRPPRLPRPRPRPTKRPRP are within 0.2 log units of each other in “shrunken log2 fold change” value: 0.158 for the first, 0.123 for the second.

RRIRNRPPRLPRPRPRPGAKPRP and RRIRYRPPRLPRPRPRPGWRPRP are within 0.2 log units of each other in “shrunken log2 fold change” value: 0.362 for the first, 0.386 for the second.

First: RRIRYRPPRLPRPRPRPNDHPRP
Second: RRIRIRPPRLPRPRPRPWIPPRP
The “shrunken log2 fold change” value of the first is lower: -1.23 for the first, -0.562 for the second.

Going from RRIRTRPPRLPRPRPRPYMPPRP to RRIRMRPPRLPRPRPRPPDDPRP, the “shrunken log2 fold change” value rises from -1.27 to 0.0932.

In the case of RRIRMRPPRLPRPRPRPIEYPRP, the “shrunken log2 fold change” value is reported as 0.048.
